# US9175313B2, “Three-dimensional structure of isoprene synthase and its use thereof for generating variants” (Danisco US Inc., priority 2009, dated 2015)
# B1: L494P: P. alba IspS variant L494P; pDW101, strain DW399, SEQ ID NO: 69 (protein)
# chain: MEARRSANYEPNSWDYDYLLSSDTDESIEVYKDKAKKLEAEVRREINNEKAEFLTLLELIDNVQRLGLGYRFESDIRGALDRFVSSGGFDAVTKTSLHGTALSFRLLRQHGFEVSQEAFSGFKDQNGNFLENLKEDIKAILSLYEASFLALEGENILDEAKVFAISHLKELSEEKIGKELAEQVNHALELPLHRRTQRLEAVWSIEAYRKKEDANQVLLELAILDYNMIQSVYQRDLRETSRWWRRVGLATKLHFARDRLIESFYWAVGVAFEPQYSDCRNSVAKMFSFVTIIDDIYDVYGTLDELELFTDAVERWDVNAINDLPDYMKLCFLALYNTINEIAYDNLKDKGENILPYLTKAWADLCNAFLQEAKWLYNKSTPTFDDYFGNAWKSSSGPLQLVFAYFAVVQNIKKEEIENLQKYHDTISRPSHIFRLCNDLASASAEIARGETANSVSCYMRTKGISEELATESVMNLIDETWKKMNKEKLGGSPFAKPFVETAINLARQSHCTYHNGDAHTSPDELTRKRVLSVITEPILPFERENLYFQGLEHHHHHH
# Experiment: Specific activity measurement of purified isoprene synthase variants (4 mM DMAPP, 30 C, GC-MS headspace)
# Type: biochemical
# How it was run: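 Ni-affinity-purified, buffer-exchanged enzyme incubated with 4 mM DMAPP and 50 mM MgCl2 in 50 mM Tris, 50 mM NaCl, pH 8, for 15 min at 30 C in sealed vials; stopped with EDTA. Headspace isoprene quantified by GC-MS, in triplicate; protein concentration from A280 with calculated extinction coefficient.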
molecule,measurement,setting,value
B1,S.A.,"50 mM NaCl, 50 mM Tris pH = 8, 30° C.",950 ± 40 nmol/mg/min
same,Variant S.A./WT S.A.,"50 mM NaCl, 50 mM Tris pH = 8, 30° C., ratio to WT",2.0
same,"specific activity compared to WT isoprene synthase, in words","30 C, purified enzyme",increased specific activity
same,"specific activity, times/fold greater than WT","30 C, purified enzyme, listed as P",2.0
same,"specific activity, times/fold greater than WT","30 C, purified enzyme, listed as β",2
